Positions count from the first letter of the chain named. In names and notes the source's numbering stands.
Columns and labels:
RSM, RECQ4(348-388) [1] = target: T1, RSM, RECQ4(348-388) (Homo sapiens, UniProt O94761); assay: ITC; 70 mM KCl, pH 6.5, 30 C; FA: 25 mM KPO4 pH 6.5, 70 mM KCl (or 500 mM NaCl), 25 C; ITC: same low-salt buffer, 30 C; NMR dsDNA: 50 mM NaPO4 pH 6.0, 150 mM NaCl, 298 K; NMR G4: 25 mM KPO4; settings: protein: recombinant, tags: N-terminal His6-TEV construct (pET-M11)
T1 chain: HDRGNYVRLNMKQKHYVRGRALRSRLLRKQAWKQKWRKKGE

sRSM, RECQ4(358-388) [2] = target: T2, sRSM, RECQ4(358-388) (Homo sapiens, UniProt O94761); assay: NMR; largest CSP at 5'-end G-tetrad; FA: 25 mM KPO4 pH 6.5, 70 mM KCl (or 500 mM NaCl), 25 C; ITC: same low-salt buffer, 30 C; NMR dsDNA: 50 mM NaPO4 pH 6.0, 150 mM NaCl, 298 K; NMR G4: 25 mM KPO4; settings: label: 5' FITC (FA); intramolecular hybrid G4
T2 chain: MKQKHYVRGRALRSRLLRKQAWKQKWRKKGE

RSM 5E mutant = target: T3, RSM 5E mutant (Homo sapiens, UniProt O94761 348-388, R375E;K376E;K380E;K382E;R384E); assay: NMR; binding not detectable, no droplets; FA: 25 mM KPO4 pH 6.5, 70 mM KCl (or 500 mM NaCl), 25 C; ITC: same low-salt buffer, 30 C; NMR dsDNA: 50 mM NaPO4 pH 6.0, 150 mM NaCl, 298 K; NMR G4: 25 mM KPO4; settings: protein: recombinant; tags: N-terminal His6-TEV construct (pET-M11); label: 5' FITC (FA); intramolecular hybrid G4
T3 chain: T1 chain with R28E, K29E, K33E, K35E, R37E

RSM, RECQ4(348-388) [3] = target: T1, RSM, RECQ4(348-388); assay: fluorescence anisotropy; low ionic strength (70 mM KCl); submicromolar; FA: 25 mM KPO4 pH 6.5, 70 mM KCl (or 500 mM NaCl), 25 C; ITC: same low-salt buffer, 30 C; NMR dsDNA: 50 mM NaPO4 pH 6.0, 150 mM NaCl, 298 K; NMR G4: 25 mM KPO4; settings: protein: recombinant, tags: N-terminal His6-TEV construct (pET-M11)
RSM, RECQ4(348-388) [4] = target: T1, RSM, RECQ4(348-388); assay: NMR; 300 mM NaCl, pH 6.0, 288 K; FA: 25 mM KPO4 pH 6.5, 70 mM KCl (or 500 mM NaCl), 25 C; ITC: same low-salt buffer, 30 C; NMR dsDNA: 50 mM NaPO4 pH 6.0, 150 mM NaCl, 298 K; NMR G4: 25 mM KPO4; settings: protein: recombinant; tags: N-terminal His6-TEV construct (pET-M11); 10 bp duplex with unpaired TTTT arms (3' of strand 1, 5' of strand 2)
sRSM, RECQ4(358-388) [5] = target: T2, sRSM, RECQ4(358-388); assay: stopped-flow/CD/NMR/light scattering global fit; Kd,1: initial 1:1 complex; FA: 25 mM KPO4 pH 6.5, 70 mM KCl (or 500 mM NaCl), 25 C; ITC: same low-salt buffer, 30 C; NMR dsDNA: 50 mM NaPO4 pH 6.0, 150 mM NaCl, 298 K; NMR G4: 25 mM KPO4; settings: intramolecular parallel G4
RPA32C, RPA32(172−270) [6] = target: T4, RPA32C, RPA32(172−270) (human, UniProt P15927 172-270); assay: NMR titration; 1H-15N HSQC of 50 or 100 μM 15N-labelled protein (RECQ4 or RPA) with step-wise addition or an excess of the unlabelled partner; buffer and temperature in Supplementary Table 6; settings: both partners purified
T4 construct: Used 15N-labelled or unlabelled in NMR; unlabelled in ITC; also called RPA32C domain; source: E. coli BL21(DE3), purified (IMAC, TEV cleavage, second IMAC, Superdex 75); not shown: His6, N-terminal, cleaved
T4 sequence (P15927 172-270): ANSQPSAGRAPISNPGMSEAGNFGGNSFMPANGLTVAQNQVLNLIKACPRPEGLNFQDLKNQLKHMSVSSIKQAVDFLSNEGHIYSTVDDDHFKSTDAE

RPA32C, RPA32(172−270) [7] = target: T4, RPA32C, RPA32(172−270); assay: NMR titration; 2D lineshape analysis (TITAN v1.6) of 1H-15N HSQC titrations of 50 μM 15N RSM with RPA32C (up to 16× excess) and dsDNA (up to 4× excess) and their competition; four titrations, 24 spectra, 16 residues fitted globally to a competitive binding model; settings: both partners purified
RSM, RECQ4(348-388) [8] = target: T1, RSM, RECQ4(348-388); assay: fluorescence anisotropy; low ionic strength (70 mM KCl); FA: 25 mM KPO4 pH 6.5, 70 mM KCl (or 500 mM NaCl), 25 C; ITC: same low-salt buffer, 30 C; NMR dsDNA: 50 mM NaPO4 pH 6.0, 150 mM NaCl, 298 K; NMR G4: 25 mM KPO4; settings: protein: recombinant, tags: N-terminal His6-TEV construct (pET-M11)
RECQ4(322-400) [9] = target: T5, RECQ4(322-400) (Homo sapiens, UniProt O94761 322-400); assay: NMR; only RSM residues affected; FA: 25 mM KPO4 pH 6.5, 70 mM KCl (or 500 mM NaCl), 25 C; ITC: same low-salt buffer, 30 C; NMR dsDNA: 50 mM NaPO4 pH 6.0, 150 mM NaCl, 298 K; NMR G4: 25 mM KPO4; settings: protein: recombinant; tags: N-terminal His6-TEV construct (pET-M11); label: 5' FITC on strand 1 (FA); blunt
T5 sequence: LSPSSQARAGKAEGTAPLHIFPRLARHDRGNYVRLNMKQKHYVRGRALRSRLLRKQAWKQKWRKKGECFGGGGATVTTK

RSM, RECQ4(348-388) [10] = target: T1, RSM, RECQ4(348-388); assay: NMR 2D lineshape analysis (competition with RPA32C); 150 mM NaCl, pH 6.0, 298 K; kon 1.5e10 M-1 s-1; FA: 25 mM KPO4 pH 6.5, 70 mM KCl (or 500 mM NaCl), 25 C; ITC: same low-salt buffer, 30 C; NMR dsDNA: 50 mM NaPO4 pH 6.0, 150 mM NaCl, 298 K; NMR G4: 25 mM KPO4; settings: protein: recombinant; tags: N-terminal His6-TEV construct (pET-M11); label: 5' FITC on strand 1 (FA); blunt
RSM, RECQ4(348-388) [11] = target: T1, RSM, RECQ4(348-388); assay: EMSA; FA: 25 mM KPO4 pH 6.5, 70 mM KCl (or 500 mM NaCl), 25 C; ITC: same low-salt buffer, 30 C; NMR dsDNA: 50 mM NaPO4 pH 6.0, 150 mM NaCl, 298 K; NMR G4: 25 mM KPO4; settings: protein: recombinant; tags: N-terminal His6-TEV construct (pET-M11); label: 5' FITC on strand 1; blunt
sRSM, RECQ4(358-388) [12] = target: T2, sRSM, RECQ4(358-388); assay: as above; settings: label: 5' FITC on strand 1; blunt
RECQ4(322-400) [13] = target: T5, RECQ4(322-400); assay: EMSA; profile indistinguishable from RSM and sRSM; FA: 25 mM KPO4 pH 6.5, 70 mM KCl (or 500 mM NaCl), 25 C; ITC: same low-salt buffer, 30 C; NMR dsDNA: 50 mM NaPO4 pH 6.0, 150 mM NaCl, 298 K; NMR G4: 25 mM KPO4; settings: protein: recombinant; tags: N-terminal His6-TEV construct (pET-M11); label: 5' FITC on strand 1; blunt
[14] = label: 5' FITC (FA), intramolecular hybrid G4

B1: HT hybrid G4 (structured_DNA)
DNA: TTGGGTTAGGGTTAGGGTTAGGGA
RSM, RECQ4(348-388) [1]; [14]
  Kd: 0.42 ± 0.14 µM
sRSM, RECQ4(358-388) [2]
  binding result: binds
RSM 5E mutant
  binding result: no binding
RSM, RECQ4(348-388) [3]; [14]
  Kd: < 1 µM

B2: splayed-arm Y14 (dsDNA)
DNA 1: CAGCGCTCGGTTTT
DNA 2: TTTTCCGAGCGCTG
RSM, RECQ4(348-388) [4]
  binding result: binds

B3: T95-2T parallel G4 (structured_DNA)
DNA: TTGGGTGGGTGGGTGGGT
RSM, RECQ4(348-388) [1]; intramolecular parallel G4
  Kd: 0.2 ± 0.08 µM
sRSM, RECQ4(358-388) [5]
  Kd: 3.1 ± 0.2 µM

B4: RECQ4(322–400) (domain or fragment, human, UniProt O94761 322-400, looked up)
chain: T5 sequence
notes: Used 15N-labelled or unlabelled in NMR; source: E. coli BL21(DE3), purified (IMAC, TEV cleavage, Mono S, Superdex 75); not shown: His6, N-terminal, cleaved
RPA32C, RPA32(172−270) [6]
  binding result: binds

B5: CEB1 parallel G4 (structured_DNA)
DNA: AGGGGGGAGGGAGGGTGG
RSM, RECQ4(348-388) [3]; label: 5' FITC or Cy3 (FA, EMSA), parallel G4
  Kd: < 1 µM

B6: RECQ4-specific motif (RSM), RECQ4(348–388) (domain or fragment, human, UniProt O94761 348-388, looked up)
chain: T1 chain
notes: H. sapiens RECQ4 residues 348-388 (RSM), cloned in pET-M11; Used 15N-labelled or unlabelled in NMR; unlabelled in ITC; source: E. coli BL21(DE3), purified (IMAC, TEV cleavage, Mono S, Superdex 75); not shown: His6, N-terminal, cleaved
RPA32C, RPA32(172−270) [7]
  Kd: 117 µM
  kon: 2.4e+08 M⁻¹ s⁻¹

B7: RSM W379A/W383A (domain or fragment, human, UniProt O94761 348-388, looked up)
chain: T1 chain with W32A, W36A
notes: H. sapiens RECQ4 residues 348-388 with W379A and W383A, made from the RECQ4(348–388) expression vector; also called RSM double tryptophan mutant; source: E. coli BL21(DE3), purified; not shown: His6, N-terminal, cleaved
RPA32C, RPA32(172−270) [6]
  binding result: binds

B8: ss10 (ssDNA)
DNA: CAGCGCTCGG
RSM, RECQ4(348-388) [8]; label: 5' FITC (FA)
  Kd: ~1 µM

B9: ds10 (dsDNA)
DNA 1: CAGCGCTCGG
DNA 2: CCGAGCGCTG
RECQ4(322-400) [9]
  binding result: binds
RSM, RECQ4(348-388) [8]; label: 5' FITC on strand 1 (FA), blunt
  Kd: ~1 µM
RSM, RECQ4(348-388) [10]
  Kd: 6.3 ± 0.6 µM

B10: ds49 (dsDNA)
DNA 1: AGCTACCATGCCTGCACGAATTAAGCAATTCGTAATCATGGTCATAGCT
DNA 2: AGCTATGACCATGATTACGAATTGCTTAATTCGTGCAGGCATGGTAGCT
RSM, RECQ4(348-388) [11]
  binding result: binds
sRSM, RECQ4(358-388) [12]
  binding result: binds
RECQ4(322-400) [13]
  binding result: binds

— article PMC10598209 (Nature Communications, 2023)
